In this assay the target is LRRTM2 expressed on K562 cells (mouse) (UniProt Q8BGA3). The assay can be described thus: cell adhesion assay; K562 'prey' cells (NRX1-alpha variant, beta-Gal, RFP) mixed with biotinylated K562 'bait' cells (LRRTM2 or NL3(A2), AP-GFP, BirA-ER) on neutravidin magnetic beads; 60 min at RT in DMEM without serum; bound cells read by beta-Gal activity.
Sequence of UniProt Q8BGA3 (Q8BGA3 34-515): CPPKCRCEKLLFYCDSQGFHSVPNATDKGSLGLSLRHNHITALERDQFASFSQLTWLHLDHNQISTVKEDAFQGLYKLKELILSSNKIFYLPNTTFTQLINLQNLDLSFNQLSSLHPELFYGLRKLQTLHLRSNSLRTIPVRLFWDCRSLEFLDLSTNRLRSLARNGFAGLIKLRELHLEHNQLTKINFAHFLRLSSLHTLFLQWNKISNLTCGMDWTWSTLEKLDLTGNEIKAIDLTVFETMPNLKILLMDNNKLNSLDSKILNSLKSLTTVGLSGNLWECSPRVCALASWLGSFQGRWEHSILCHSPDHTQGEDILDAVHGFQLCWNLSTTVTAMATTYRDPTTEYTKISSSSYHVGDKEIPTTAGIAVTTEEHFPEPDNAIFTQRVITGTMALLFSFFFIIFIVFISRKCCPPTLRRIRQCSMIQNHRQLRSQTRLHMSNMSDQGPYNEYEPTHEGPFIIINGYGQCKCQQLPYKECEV

“NRX1alpha lacking the insertions at AS3 and AS6, expressed on K562 cells (from UniProt Q9CS84 31-1514) (receptor)”: the fold increase of adhesion against the AS6+ isoforms was 3 fold.

Take “NRX1alpha with the insertion at AS3 and lacking the insertion at AS6, expressed on K562 cells (from UniProt Q9CS84 31-1514) (receptor)”: the fold increase of adhesion against the AS6+ isoforms is 3 fold.

The values are drawn from publication PMC4489214.
